Results published in patent US7521540B2, “CYR61 compositions and methods” (Munin Corporation, priority 1996, dated 2009).

Assays:
[1] = tested on: Limb mesenchymal cells; test: Limb mesenchymal cell proliferation in micromass culture; format: cell-based, mouse
Protocol: Ahrens et al., Dev. Biol. 60:69-82 (1977), has reported that these cells, in micromass culture, undergo chondrogenesis in a manner similar to the in vivo process. Mesenchyme cells were obtained from mouse embryonic limb buds by trypsin digestion (1 mg/ml, 1:250 dilution of porcine pancreatic trypsin, Sigma Chemical Co.). Cells were explanted in plastic tissue culture wells and allowed to attach for 2 hours at 37° C., 5% CO2. Cells were then incubated for 24 hours at 37° C., 5% CO2 in MEM with 10% FBS, penicillin (50 U/ml), and streptomycin (50 μg/ml). At this point, the composition of the medium was changed by substituting 4% NuSerum (Collaborative Biomedical Products, Inc.) for 10% FBS. Individual cultures then received Cyr61, fibronectin, heparin (each at approximately 1 μg/ml) or buffer as a negative control. […] Harlow et al.
Cell proliferation during the 4 day culture period was determined by counting cell number and by incorporation of [^3H]-thymidine. To determine cell number, cells were harvested by trypsin/EDTA (Sigma) and counted with a Coulter counter. In parallel cultures, [^3H]-thymidine (1 μCi/ml; ICN) was added to the media for 18 hours and incorporation in the TCA-insoluble layer was determined by liquid scintillation counting.

[2] = target: T1, αVβ3 integrin (Homo sapiens, UniProt P05106+P06756); test: Integrin binding assay (ligand-receptor ELISA); conditions: 1 μg/ml Cyr61 or 0.1 μg/ml vitronectin
T1 construct: αVβ3 integrin purification from HUVE cell lysates was done as described in Pytela et al; endogenous in cells; host or cells: HUVE cells
Protocol: αVβ3 integrin purification from HUVE cell lysates was done as described in Pytela et al., Meth. Enzynmol., 144:475-489 (1987). Briefly, 10^8 cells were lysed in 1 ml of PBS containing 1 mM CaCl2, 1 mM MgCl2, 0.5 mM PMSF and 100 mM octylglucoside. […] The purity of the integrin was determined by SDS-PAGE under non-reducing conditions, followed by silver staining.
The integrin binding assay was developed in accordance with the disclosures in Brooks et al., Cell 85:683-693 (1996), and Lam, S. C-T (1992). […] Bound proteins were detected by specific polyclonal antisera (anti-Cyr61 antiserum was diluted 1:500 and anti-vitronectin antiserum was diluted 1:1000 in PBS containing 1 mM CaCl2, 1 mM MgCl2, and 5 mg/ml BSA) followed by a secondary antibody-horseradish peroxidase conjugate (1:20000 in the same buffer). […] Horseradish peroxidase (HRP) was detected with an HRP immunoassay kit (Bio-Rad Laboratories). The colorimetric reaction was developed for 15-30 minutes at room temperature, stopped by the addition of H2SO4, and the absorbance at 450 nm was measured. […]

[3] = tested on: Human Microvascular Endothelial Cells; test: In vitro migration assay for angiogenesis inhibitors; format: cell-based; conditions: bFGF 10 ng/ml; Cyr61; IGF-II
Protocol: As in the preceding Example, human microvascular endothelial cells (Clonetics) were used. In one series of assays, several carbohydrates and carbohydrate derivatives were analyzed. These compounds included 10 mM mannose, 10 mM mannose-6-phosphate, and 10 mM galactose. […] Cyr61 plus galactose induced the migration of approximately 74 cells per set of three high-powered fields. […] The angiogenic activity of basic FGF (10 ng/ml) was also tested, as described above, with and without mannose-6-phosphate. In the presence of 10 mM mannose-6-phosphate, bFGF induced 51 cells per set of three high-powered fields to migrate; in its absence, bFGF induced the migration of approximately 52 cells. […] The effect of mannose-6-phosphate on IGF II activity was anticipated because mannose-6-phosphate is known to compete with IGF II for their common receptor (the IGF II receptor). […] Moreover, because there is an essentially perfect correlation between the in vitro migration assay and the in vivo angiogenesis assay, described below, mannose-6-phosphate has been identified as an inhibitor of angiogenesis based on the results of the assay disclosed herein. Accordingly, the invention contemplates a method of inhibiting angiogenesis comprising the step of administering an inhibitor the angiogenic activity of Cyr61 such as mannose-6-phosphate. […]

T1 sequence (P06756 31-889 limits assumed): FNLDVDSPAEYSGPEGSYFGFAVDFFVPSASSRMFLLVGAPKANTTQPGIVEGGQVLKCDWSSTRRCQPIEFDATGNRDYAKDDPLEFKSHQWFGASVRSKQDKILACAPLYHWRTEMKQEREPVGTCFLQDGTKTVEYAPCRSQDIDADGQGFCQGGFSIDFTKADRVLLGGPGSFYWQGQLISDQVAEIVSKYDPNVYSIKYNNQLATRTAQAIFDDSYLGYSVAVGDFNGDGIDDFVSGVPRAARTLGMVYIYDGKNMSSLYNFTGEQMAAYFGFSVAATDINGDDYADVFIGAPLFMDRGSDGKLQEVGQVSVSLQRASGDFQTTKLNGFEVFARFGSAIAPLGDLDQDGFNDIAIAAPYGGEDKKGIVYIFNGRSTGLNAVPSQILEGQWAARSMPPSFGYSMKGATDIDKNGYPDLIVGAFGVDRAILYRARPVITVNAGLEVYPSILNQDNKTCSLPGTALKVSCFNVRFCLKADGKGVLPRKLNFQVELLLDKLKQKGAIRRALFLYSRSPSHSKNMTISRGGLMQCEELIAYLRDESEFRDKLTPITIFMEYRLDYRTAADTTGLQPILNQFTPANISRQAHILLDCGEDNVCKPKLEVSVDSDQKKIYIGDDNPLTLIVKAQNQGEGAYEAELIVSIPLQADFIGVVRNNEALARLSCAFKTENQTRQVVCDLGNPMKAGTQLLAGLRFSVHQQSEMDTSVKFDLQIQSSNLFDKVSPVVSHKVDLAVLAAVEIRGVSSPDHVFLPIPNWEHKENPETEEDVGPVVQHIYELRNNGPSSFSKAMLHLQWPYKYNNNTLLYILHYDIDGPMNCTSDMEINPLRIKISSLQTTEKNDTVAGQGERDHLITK
T1 sequence (P06756 891-1048 partner limits assumed): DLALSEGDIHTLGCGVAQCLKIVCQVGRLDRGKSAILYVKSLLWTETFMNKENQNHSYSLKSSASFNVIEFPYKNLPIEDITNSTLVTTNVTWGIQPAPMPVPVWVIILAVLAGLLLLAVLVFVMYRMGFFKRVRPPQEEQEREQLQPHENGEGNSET
T1 sequence (P05106 27-788): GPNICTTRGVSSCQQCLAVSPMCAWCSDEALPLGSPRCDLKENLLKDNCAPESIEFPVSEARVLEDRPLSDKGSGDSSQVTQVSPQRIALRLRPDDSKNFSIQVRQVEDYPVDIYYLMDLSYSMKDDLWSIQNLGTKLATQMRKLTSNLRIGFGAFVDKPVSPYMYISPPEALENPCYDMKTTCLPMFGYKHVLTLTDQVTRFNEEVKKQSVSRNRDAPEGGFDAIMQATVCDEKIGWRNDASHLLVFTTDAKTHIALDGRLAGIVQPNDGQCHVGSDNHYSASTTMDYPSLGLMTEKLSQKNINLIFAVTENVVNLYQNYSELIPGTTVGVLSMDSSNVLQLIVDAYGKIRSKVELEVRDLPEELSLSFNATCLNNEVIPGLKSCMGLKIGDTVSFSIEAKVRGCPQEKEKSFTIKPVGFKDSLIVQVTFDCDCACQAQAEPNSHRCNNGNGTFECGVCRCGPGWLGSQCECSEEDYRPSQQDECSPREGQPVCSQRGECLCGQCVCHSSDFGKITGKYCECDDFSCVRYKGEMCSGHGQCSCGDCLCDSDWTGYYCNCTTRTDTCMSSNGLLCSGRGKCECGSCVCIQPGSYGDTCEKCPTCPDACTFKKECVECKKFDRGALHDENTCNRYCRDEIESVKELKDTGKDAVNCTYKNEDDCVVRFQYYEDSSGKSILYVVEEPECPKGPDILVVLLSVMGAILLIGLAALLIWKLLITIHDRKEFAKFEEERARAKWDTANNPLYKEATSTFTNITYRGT

B1: Cyr61: Cysteine-rich ECM signaling protein; murine sequence SEQ ID NO:2, recombinant from Baculovirus-infected Sf9 cells (protein, listed as Mus musculus)
chain: MSSSTFRTLAVAVTLLHLTRLALSTCPAACHCPLEAPKCAPGVGLVRDGCGCCKVCAKQLNEDCSKTQPCDHTKGLECNFGASSTALKGICRAQSEGRPCEYNSRIYQNGESFQPNCKHQCTCIDGAVGCIPLCPQELSLPNLGCPNPRLVKVSGQCCEEWVCDEDSIKDSLDDQDDLLGLDASEVELTRNNELIAIGKGSSLKRLPVFGTEPRVLFNPLHAHGQKCIVQTTSWSQCSKSCGTGISTRVTNDNPECRLVKETRICEVRPCGQPVYSSLKKGKKCSKTKKSPEPVRFTYAGCSSVKKYRPKYCGSCVDGRCCTPLQTRTVKMRFRCEDGEMFSKNVMMIQSCKCNYNCPHPNEASFRLYSLFNDIHKFRD
cell number and DNA synthesis [1]: both increased cell number and enhanced DNA synthesis after 2 and 3 days in culture
binding to immobilized αVβ3 integrin [2]: bound to the immobilized integrin
migrating cells, chemoattractant without mannose-6-phosphate [3]: approximately 48 cells
